Read-outs that look alike come from different tables or passages of the source.
What was measured:
[1] = target: T1, recombinant human extracellular domain of EGFR fused to an IgG1 Fc (human, UniProt P00533 25-645); assay: SPR (ProteOn) per Example 3
T1 construct: Bought (R&D Systems); captured on anti-human Fc IgG for SPR; also called EGFR-Fc
Description: (§1) Select EGFR/c-Met molecules were characterized for their affinity to both EGFR and c-Met, their ability to inhibit EGFR and c-Met autophosphorylation, and their effect on proliferation of HGF cells. Binding affinity of the bispecific EGFR/c-Met molecules to recombinant EGFR and/or c-Met extracellular domain was further by surface Plasmon resonance methods using a Proteon Instrument (BioRad) according to protocol described in Example 3.

[2] = target: T2, recombinant c-Met extracellular domain (human, UniProt P08581 16-932); assay: SPR (ProteOn) per Example 3
T2 construct: Construct used for SPR is not described further (may be the Fc chimera, as the protocol captures on anti-human Fc)
Description: as §1

[3] = target: T3, human c-Met on cells (NCI-H441, NCI-H292, U87-MG) (human, UniProt P08581 25-1390); assay: cell-based or functional assay
[4] = target: human EGFR on cells (A431, NCI-H292, NCI-H322, NCI-H441) (human, UniProt P00533 25-1210); assay: cell-based or functional assay
[5] = target: T3, human c-Met on cells (NCI-H441, …); assay: cell-based or functional assay; remark: listed apart in the source
[6] = target: T4, Recombinant human c-Met Fc chimera (human, UniProt P08581 16-932); assay: competition with biotinylated HGF on plate-coated c-Met-Fc
T4 construct: whole c-Met entry named; also called c-Met-Fc fusion protein

[7] = target: T2, recombinant c-Met extracellular domain; assay: SPR kinetic analysis as in Example 2
[8] = target: T3, human c-Met on cells (NCI-H441, …); assay: NCI-H441 cell binding, anti-His fluorescence
Procedure: Purified FN3 domains (50 μL/well; 0 to 1000 nM) were added to the cells for 1 hour at 4° C. in duplicate plates. Supernatant was removed and cells were washed three times with FACS stain buffer (150 μL/well, BD Biosciences, cat #554657). Cells were incubated with biotinylated-anti HIS antibody (diluted 1:160 in FACS stain buffer, 50 μL/well, R&D Systems, cat # BAM050) for 30 minutes at 4° C. Cells were washed three times with FACS stain buffer (150 μL/well), after which wells were incubated with anti mouse IgG1-Alexa 488 conjugated antibody (diluted 1:80 in FACS stain buffer, 50 μL/well, Life Technologies, cat # A21121) for 30 minutes at 4° C. Cells were washed three times with FACS stain buffer (150 μL/well) and left in FACS stain buffer (50 μL/well). Total fluorescence was determined using an Acumen eX3 reader. Data were plotted as raw fluorescence signal against the logarithm of the FN3 domain molar concentration and fitted to a sigmoidal dose-response curve with variable slope using GraphPad Prism 4 (GraphPad Software) to calculate EC₅₀ values.

Binder	Kd [1]	Kd [2]	pMet inhibition in H441 cells IC50 [3]	pEGFR inhibition in H292 cells IC50 [4]	pMet inhibition in H441 cells IC50 [5]	IC50 [6]	Kd [7]	EC50 [8]	Inhibition of proliferation of U87-MG cells IC50 [5]
ECB95 (designed binder, not shown: small tags and cut ends, Bispecific: P54AR4-83v22, (AP)5, P114AR9P121-A6v2) MLPAPKNLVVSEVTEDSARLSWDDPWAFYESFLIQYQESEKVGEAIVLTVPGSERSYDLTGLKPGTEYTVSIYGVHNVYKDTNIRGLPLSAIFTTAPAPAPAPAPLPAPKNLVVSRVTEDSARLSWTAPDAAFDSFWIRYFEFVGSGEAIVLTVPGSERSYDLTGLKPGTEYVVNILGVKGGSISPPLSAIFTT	1.1 nM	6.2 nM	179 nM	13.6 nM					
ECB94 (designed binder, not shown: small tags and cut ends, Bispecific: P54AR4-83v22, (AP)5, P114AR7P94-A3v22) MLPAPKNLVVSEVTEDSARLSWDDPWAFYESFLIQYQESEKVGEAIVLTVPGSERSYDLTGLKPGTEYTVSIYGVHNVYKDTNIRGLPLSAIFTTAPAPAPAPAPLPAPKNLVVSRVTEDSARLSWTAPDAAFDSFWIRYFEFLGSGEAIVLTVPGSERSYDLTGLKPGTEYVVNILGVKGGKISPPLSAIFTT	1 nM	4.3 nM	53.8 nM	5.1 nM					
ECB106 (designed binder, not shown: small tags and cut ends, Bispecific: P54AR4-83v23, (AP)5, P114AR7P94-A3v22) MLPAPKNLVVSEVTEDSARLSWDDPHAFYESFLIQYQESEKVGEAIVLTVPGSERSYDLTGLKPGTEYTVSIYGVHNVYKDTNIRGLPLSAIFTTAPAPAPAPAPLPAPKNLVVSRVTEDSARLSWTAPDAAFDSFWIRYFEFLGSGEAIVLTVPGSERSYDLTGLKPGTEYVVNILGVKGGKISPPLSAIFTT	16.7 nM	5.1 nM	53.3 nM	367 nM					
ECB97 (designed binder, not shown: small tags and cut ends, Bispecific: P54AR4-83v22, (AP)5, P114AR7P95-C5v2) MLPAPKNLVVSEVTEDSARLSWDDPWAFYESFLIQYQESEKVGEAIVLTVPGSERSYDLTGLKPGTEYTVSIYGVHNVYKDTNIRGLPLSAIFTTAPAPAPAPAPLPAPKNLVVSRVTEDSARLSWTAPDAAFDSFWIRYFEFLGSGEAIVLTVPGSERSYDLTGLKPGTEYVVNILSVKGGSISPPLSAIFTT	1.3 nM	1.7 nM	24.2 nM	16.6 nM					
ECB15 (designed binder, not shown: small tags and cut ends) MLPAPKNLVVSEVTEDSARLSWDDPWAFYESFLIQYQESEKVGEAIVLTVPGSERSYDLTGLKPGTEYTVSIYGVHNVYKDTNMRGLPLSAIFTTAPAPAPAPAPLPAPKNLVVSRVTEDSARLSWTAPDAAFDSFWIRYFEFLGSGEAIVLTVPGSERSYDLTGLKPGTEYVVNIMGVKGGKISPPLSAIFTT	0.2 nM	2.6 nM		4.2 nM					
ECB96 (designed binder, not shown: small tags and cut ends, Bispecific: P54AR4-83v22, (AP)5, P114AR9P122-A7v2) MLPAPKNLVVSEVTEDSARLSWDDPWAFYESFLIQYQESEKVGEAIVLTVPGSERSYDLTGLKPGTEYTVSIYGVHNVYKDTNIRGLPLSAIFTTAPAPAPAPAPLPAPKNLVVSRVTEDSARLSWTAPDAAFDSFWIRYFEFVSKGDAIVLTVPGSERSYDLTGLKPGTEYVVNILGVKGGSISPPLSAIFTT	1.6 nM	22.1 nM	835 nM	24.7 nM					
P114AR7P95-D3 (designed binder, not shown: small tags and cut ends) LPAPKNLVVSRVTEDSARLSWTAPDAAFDSFWIRYFEFLGSGEAIVLTVPGSERSYDLTGLKPGTEYVVNIMGVKGGSISYPLSAIFTT					4.6 nM	0.2 nM	0.3 nM		
P114AR7P94-E5 (designed binder, not shown: small tags and cut ends) LPAPKNLVVSRVTEDSARLSWTAPDAAFDSFWIRYFEFLGSGEAIVLTVPGSERSYDLTGLKPGTEYAVNIMGVKGGRVSVPLSAIFTT					124 nM	0.7 nM	4.2 nM	3.4 nM	196 nM
P114AR5P75-E9 (designed binder, not shown: small tags and cut ends) LPAPKNLVVSRVTEDSARLSWTAPDAAFDSFFIRYDEFLRSGEAIVLTVPGSERSYDLTGLKPGTEYWVTILGVKGGLVSTPLSAIFTT					1420 nM	51.9 nM	45.8 nM		1190 nM
P114AR7P95-B9 (designed binder, not shown: small tags and cut ends) LPAPKNLVVSRVTEDSARLSWTAPDAAFDSFWIRYFEFLGSGEAIVLTVPGSERSYDLTGLKPGTEYVVQILGVKGGSISVPLSAIFTT					9.8 nM	0.3 nM			17.4 nM
P114AR7P94-A3 (designed binder, not shown: small tags and cut ends) LPAPKNLVVSRVTEDSARLSWTAPDAAFDSFWIRYFEFLGSGEAIVLTVPGSERSYDLTGLKPGTEYVVNIMGVKGGKISPPLSAIFTT					5 nM	0.2 nM	0.4 nM	1.4 nM	9.3 nM
P114AR7P95-H8 (designed binder, not shown: small tags and cut ends) LPAPKNLVVSRVTEDSARLSWTAPDAAFDSFWIRYFEFVSKGEAIVLTVPGSERSYDLTGLKPGTEYVVNIMGVKGGSISPPLSAIFTT					210 nM		3.7 nM	4.1 nM	281 nM
P114AR7P92-F6 (designed binder, not shown: small tags and cut ends) LPAPKNLVVSRVTEDSARLSWTAPDAAFDSFWIRYFEFLGSGEAIVLTVPGSERSYDLTGLKPGTEYVVNILGVKGGGLSVPLSAIFTT					165 nM	2.2 nM	3.1 nM	4.9 nM	350 nM
P114AR7P95-G7 (designed binder, not shown: small tags and cut ends) LPAPKNLVVSRVTEDSARLSWTAPDAAFDSFWIRYFELLSTGEAIVLTVPGSERSYDLTGLKPGTEYVVNIMGVKGGSISPPLSAIFTT					659 nM		20 nM	11.3 nM	692 nM
P114AR7P93-H9 (designed binder, not shown: small tags and cut ends) LPAPKNLVVSRVTEDSARLSWTAPDAAFDSFWIRYFEFLGSGEAIVLTVPGSERSYDLTGLKPGTEYVVQIIGVKGGHISLPLSAIFTT					288 nM	2.9 nM	3.3 nM	12.9 nM	270 nM
P114AR7P92-G8 (designed binder, not shown: small tags and cut ends) LPAPKNLVVSRVTEDSARLSWTAPDAAFDSFVIRYFEFLGSGEAIVLTVPGSERSYDLTGLKPGTEYVVQILGVKGGYISIPLSAIFTT					155 nM	1.6 nM	1 nM	5.9 nM	124 nM
P114AR7P93-G8 (designed binder, not shown: small tags and cut ends) LPAPKNLVVSRVTEDSARLSWTAPDAAFDSFWIRYFEFLGSGEAIVLTVPGSERSYDLTDLKPGTEYGVTINGVKGGRVSTPLSAIFTT					460 nM	1 nM	6.9 nM	3.8 nM	104 nM
P114AR7P92-F3 (designed binder, not shown: small tags and cut ends) LPAPKNLVVSRVTEDSARLSWTAPDAAFDSFWIRYFEFLGSGEAIVLTVPGSERSYDLTGLKPGTEYIVNIMGVKGGSISHPLSAIFTT					8.3 nM	0.2 nM	0.4 nM		2.7 nM
P114AR7P95-F10 (designed binder, not shown: small tags and cut ends) LPAPKNLVVSRVTEDSARLSWTAPDAAFDSFWIRYFEFTTAGEAIVLTVPGSERSYDLTGLKPGTEYVVNIMGVKGGSISPPLSAIFTT					188 nM	1.4 nM	4.2 nM	4.4 nM	130 nM
